In patent publication US20260007772A1 one finds Average % Inhibition (Percent inhibition of Neutrophil Elastase in purified serum samples) data, which are given here for one substance.

This test concerns the target Neutrophil elastase enzyme (Neutrophil Elastase Colorimetric Drug Discovery Kit, Enzo Life Sciences) (UniProt P08246). Put plainly: cell-based or functional assay.
Sequence of UniProt P08246 (P08246 30-247 limits assumed): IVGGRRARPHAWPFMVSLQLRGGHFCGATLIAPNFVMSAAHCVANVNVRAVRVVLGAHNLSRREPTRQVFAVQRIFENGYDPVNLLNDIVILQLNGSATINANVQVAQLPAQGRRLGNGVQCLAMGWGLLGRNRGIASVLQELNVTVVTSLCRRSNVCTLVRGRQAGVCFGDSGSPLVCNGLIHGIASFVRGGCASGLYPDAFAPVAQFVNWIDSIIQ

In the case of “endogenous A1AT of wild type mice (from UniProt O89094 168-257)”, the Average % Inhibition (Percent inhibition of Neutrophil Elastase in purified serum samples) came to 95.6%.
